These results are taken from the supplement of paper PMC6755084.

The chains are these.
B1: F1*; the commonest letter at each place (parent)
chain: GAGACCGCAACTGAAAAGTTGTTATCACTTGTCGTAAGACACTTTGGATGGGTTGAAGTTCTGCACGTAGAAGCAAAAGGC

The series covers variants of B1. The experiment in a line: fraction ligated after 30 min (ligated reads / total reads); higher = more ligase activity. The note with it: with F1*sub RNA substrate (template-directed ligation), 42 °C. The essentials: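 Templates from an oligo pool were PCR-amplified, transcribed with T7 and gel-purified to give the ribozyme variants. Ligated and unligated products were separated on gel, reverse transcribed using barcoded primers, and read on a MiSeq. A quality filter of ≥20 was applied to core bases. Fraction ligated was taken as ligated reads as a share of all reads per variant.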
Consider GAGACCGCAACTGAAAAGTTGTTATCACTTGTCGTACGACACTCTGGATGGGTTGAAGTTCTGCACGTAGAAGCAAAAGGC [A37C T44C], for which the fraction ligated worked out at 0.843.
Next, GAGACCGCAACTGAAAAGTTGTTATCACTTGTCGTACGACACTGTGGATGGGTTGAAGTTCTGCACGTAGAAGCAAAAGGC [A37C T44G]: 0.859; GAGACCGCAACTGAAAAGTTGTTATCACTTGTCGTACGACACTATGGATGGGTTGAAGTTCTGCACGTAGAAGCAAAAGGC [A37C T44A]: 0.84.
With GAGACCGCAACTGAAAAGTTGTTATCACTTGTCGTACGACACTTTGAATGGGTTGAAGTTCTGCACGTAGAAGCAAAAGGC [A37C G47A] the figure was 0.796.
With GAGACCGCAACTGAAAAGTTGTTATCACTTGTCGTACGACACTTTGTATGGGTTGAAGTTCTGCACGTAGAAGCAAAAGGC [A37C G47T] the figure was 0.406; with GAGACCGCAACTGAAAAGTTGTTATCACTTGTCGTACGACACTTTGCATGGGTTGAAGTTCTGCACGTAGAAGCAAAAGGC [A37C G47C], 0.444.
For the variant GAGACCGCAACTGAAAAGTTGTTATCACTTGTCGTACGACACTTTGGATTGGTTGAAGTTCTGCACGTAGAAGCAAAAGGC [A37C G50T], the fraction ligated was 0.787.
With GAGACCGCAACTGAAAAGTTGTTATCACTTGTCGTACGACACTTTGGATCGGTTGAAGTTCTGCACGTAGAAGCAAAAGGC [A37C G50C] the figure was 0.439; with GAGACCGCAACTGAAAAGTTGTTATCACTTGTCGTACGACACTTTGGATAGGTTGAAGTTCTGCACGTAGAAGCAAAAGGC [A37C G50A], 0.616; with GAGACCGCAACTGAAAAGTTGTTATCACTTGTCGTAGGCCACTTTGGATGGGTTGAAGTTCTGCACGTAGAAGCAAAAGGC [A37G A39C], 0.776.
With GAGACCGCAACTGAAAAGTTGTTATCACTTGTCGTAGGGCACTTTGGATGGGTTGAAGTTCTGCACGTAGAAGCAAAAGGC [A37G A39G] the figure was 0.853.
In the case of GAGACCGCAACTGAAAAGTTGTTATCACTTGTCGTAGGTCACTTTGGATGGGTTGAAGTTCTGCACGTAGAAGCAAAAGGC [A37G A39T], the fraction ligated turned out to be 0.796.
Next, GAGACCGCAACTGAAAAGTTGTTATCACTTGTCGTACGACACTTTGGATGGGTTGGAGTTCTGCACGTAGAAGCAAAAGGC [A37C A56G]: 0.784; GAGACCGCAACTGAAAAGTTGTTATCACTTGTCGTACGACACTTTGGATGGGTTGCAGTTCTGCACGTAGAAGCAAAAGGC [A37C A56C]: 0.818; GAGACCGCAACTGAAAAGTTGTTATCACTTGTCGTACGACACTTTGGATGGGTTGTAGTTCTGCACGTAGAAGCAAAAGGC [A37C A56T]: 0.804.
Next, GAGACCGCAACTGAAAAGTTGTTATCACTTGTCGTAGGAAACTTTGGATGGGTTGAAGTTCTGCACGTAGAAGCAAAAGGC [A37G C40A]: 0.807.
With GAGACCGCAACTGAAAAGTTGTTATCACTTGTCGTAGGAGACTTTGGATGGGTTGAAGTTCTGCACGTAGAAGCAAAAGGC [A37G C40G] the figure was 0.829; with GAGACCGCAACTGAAAAGTTGTTATCACTTGTCGTAGGATACTTTGGATGGGTTGAAGTTCTGCACGTAGAAGCAAAAGGC [A37G C40T], 0.854.
Turning to GAGACCGCAACTGAAAAGTTGTTATCACTTGTCGTACGACACTTTGGAAGGGTTGAAGTTCTGCACGTAGAAGCAAAAGGC [A37C T49A], the fraction ligated was found to be 0.778.
Next, GAGACCGCAACTGAAAAGTTGTTATCACTTGTCGTACGACACTTTGGACGGGTTGAAGTTCTGCACGTAGAAGCAAAAGGC [A37C T49C]: 0.737.
Next, GAGACCGCAACTGAAAAGTTGTTATCACTTGTCGTACGACACTTTGGAGGGGTTGAAGTTCTGCACGTAGAAGCAAAAGGC [A37C T49G]: 0.797; GAGACCGCAACTGAAAAGTTGTTATCACTTGTCGTACGACACTTCGGATGGGTTGAAGTTCTGCACGTAGAAGCAAAAGGC [A37C T45C]: 0.778.
With GAGACCGCAACTGAAAAGTTGTTATCACTTGTCGTACGACACTTGGGATGGGTTGAAGTTCTGCACGTAGAAGCAAAAGGC [A37C T45G] the figure was 0.415; with GAGACCGCAACTGAAAAGTTGTTATCACTTGTCGTACGACACTTAGGATGGGTTGAAGTTCTGCACGTAGAAGCAAAAGGC [A37C T45A], 0.78.
Take GAGACCGCAACTGAAAAGTTGTTATCACTTGTCGTACGACACTTTGGATGGGTTAAAGTTCTGCACGTAGAAGCAAAAGGC [A37C G55A]: the fraction ligated is 0.837.
With GAGACCGCAACTGAAAAGTTGTTATCACTTGTCGTACGACACTTTGGATGGGTTCAAGTTCTGCACGTAGAAGCAAAAGGC [A37C G55C], the fraction ligated is 0.826.
Next, GAGACCGCAACTGAAAAGTTGTTATCACTTGTCGTACGACACTTTGGATGGGTTTAAGTTCTGCACGTAGAAGCAAAAGGC [A37C G55T]: 0.845; GAGACCGCAACTGAAAAGTTGTTATCACTTGTCGTACGACACTTTAGATGGGTTGAAGTTCTGCACGTAGAAGCAAAAGGC [A37C G46A]: 0.78; GAGACCGCAACTGAAAAGTTGTTATCACTTGTCGTACGACACTTTCGATGGGTTGAAGTTCTGCACGTAGAAGCAAAAGGC [A37C G46C]: 0.795.
With GAGACCGCAACTGAAAAGTTGTTATCACTTGTCGTACGACACTTTTGATGGGTTGAAGTTCTGCACGTAGAAGCAAAAGGC [A37C G46T] the figure was 0.785; with GAGACCGCAACTGAAAAGTTGTTATCACTTGTCGTACGAAACTTTGGATGGGTTGAAGTTCTGCACGTAGAAGCAAAAGGC [A37C C40A], 0.82; with GAGACCGCAACTGAAAAGTTGTTATCACTTGTCGTACGAGACTTTGGATGGGTTGAAGTTCTGCACGTAGAAGCAAAAGGC [A37C C40G], 0.809.
With GAGACCGCAACTGAAAAGTTGTTATCACTTGTCGTACGATACTTTGGATGGGTTGAAGTTCTGCACGTAGAAGCAAAAGGC [A37C C40T] the figure was 0.858; with GAGACCGCAACTGAAAAGTTGTTATCACTTGTCGTAGGACACTTTGGATGGGTTGAAGTTCTGCACGTAGAAGCAAAAGGC [A37G], 0.857.
